Tests used:
[1] = biological target: T1, CD3 on Jurkat cells (UniProt P07766 23-207); assay: flow cytometry, Jurkat cells expressing CD3, gMFI
T1 construct: whole, on cells; Whole CD3 complex on cells; also called CD3-expressing Jurkat cells; Jurkat cells expressing CD3

[2] = biological target: T2, recombinant Siglec-15 (bispecific antibody affinity assay) (Homo sapiens (Human), UniProt Q6ZMC9 20-263, limits assumed); assay: antibody as ligand, human Siglec15 as analyte; legend paragraph 114 says BLI, methods paragraph 422 say Biacore SPR, table in RU
T2 sequence: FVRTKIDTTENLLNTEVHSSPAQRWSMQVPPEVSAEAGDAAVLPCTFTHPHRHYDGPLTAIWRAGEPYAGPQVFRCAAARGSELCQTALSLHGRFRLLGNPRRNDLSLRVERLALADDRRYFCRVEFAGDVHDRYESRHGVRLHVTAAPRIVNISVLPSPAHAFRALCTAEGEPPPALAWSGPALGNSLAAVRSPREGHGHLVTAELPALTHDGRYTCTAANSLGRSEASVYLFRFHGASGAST

[3] = biological target: recombinant CD3 (UniProt P07766 23-126; P09693 23-116); assay: antibody as ligand, 'Human CD3 epsilon&CD3 gamma' as analyte; legend paragraph 116 says BLI, methods paragraph 422 say Biacore SPR, table in RU
Chain of recombinant CD3 (P07766 23-126, form in doubt, chain 1 of 2): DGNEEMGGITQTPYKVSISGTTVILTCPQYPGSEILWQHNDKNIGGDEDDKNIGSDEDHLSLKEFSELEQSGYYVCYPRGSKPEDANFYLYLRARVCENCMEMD
Chain of recombinant CD3 (P09693 23-116, form in doubt, chain 2 of 2): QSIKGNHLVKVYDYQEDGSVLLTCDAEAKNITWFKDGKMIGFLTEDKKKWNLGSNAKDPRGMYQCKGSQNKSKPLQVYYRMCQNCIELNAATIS

[4] = biological target: T3, mouse Siglec-15, full length, expressed on HEK293T cells (mouse); assay: IgG1 titration, flow cytometry on HEK293T cells expressing mouse Siglec-15
T3 construct: also called mS15; HEK293T cells expressing mouse Siglec-15
T3 chain: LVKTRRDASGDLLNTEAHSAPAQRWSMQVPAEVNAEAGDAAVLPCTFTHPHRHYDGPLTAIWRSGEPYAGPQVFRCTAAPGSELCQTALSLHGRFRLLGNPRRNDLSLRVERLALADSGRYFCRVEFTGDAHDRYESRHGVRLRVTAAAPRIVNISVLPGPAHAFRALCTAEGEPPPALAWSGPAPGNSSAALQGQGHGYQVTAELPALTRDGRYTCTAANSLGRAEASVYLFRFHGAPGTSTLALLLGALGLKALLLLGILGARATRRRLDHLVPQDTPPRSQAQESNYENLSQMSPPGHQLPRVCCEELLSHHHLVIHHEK

[5] = biological target: T4, human Siglec-15, full length, expressed on cells (human, UniProt Q6ZMC9 20-328); assay: IgG1 titration, flow cytometry on MOLM-13 human Siglec-15 cells
T4 construct: also called hS15; MOLM-13 Siglec-15 expressing cells
T4 sequence: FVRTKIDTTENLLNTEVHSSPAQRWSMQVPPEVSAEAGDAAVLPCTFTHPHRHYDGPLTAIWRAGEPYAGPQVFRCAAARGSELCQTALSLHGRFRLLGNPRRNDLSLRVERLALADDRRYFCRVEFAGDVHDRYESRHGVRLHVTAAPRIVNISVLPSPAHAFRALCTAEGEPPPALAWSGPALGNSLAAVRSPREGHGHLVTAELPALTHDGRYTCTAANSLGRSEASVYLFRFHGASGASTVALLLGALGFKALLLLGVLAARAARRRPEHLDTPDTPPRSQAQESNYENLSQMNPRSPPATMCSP

[6] = biological target: T4, human Siglec-15, full length, expressed …; assay: flow cytometry, HEK293T cells expressing human Siglec-15, anti-human IgG-PE, gMFI
[7] = biological target: T5, truncated human Siglec-15 comprising only domain 2 (D2), expressed on HEK293T cells (human, UniProt Q6ZMC9 168-251, limits assumed); assay: flow cytometry, HEK293T cells expressing only domain 2 of human Siglec-15, fold change of Siglec15 gMFI relative to 2ry control
T5 construct: also called domain 2-only human Siglec-15; Siglec-15 Domain 2 (D2) HEK293T cells
T5 sequence: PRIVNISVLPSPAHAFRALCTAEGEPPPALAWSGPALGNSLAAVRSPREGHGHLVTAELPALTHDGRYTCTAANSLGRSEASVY

[8] = biological target: T4, human Siglec-15, full length, expressed …; assay: flow cytometry, THP-1 cells overexpressing human Siglec-15, ADC titrated, anti-human IgG-PE, gMFI
[9] = biological target: T6, recombinant human Siglec-15-his protein (Bonopusbio) (human, UniProt Q6ZMC9 20-263); assay: SPR (Biacore T200), antibody on CM5 chip, Siglec-15-his as analyte
T6 construct: Bought (CW37-50 ug in the ELISA; the SPR paragraph prints CW70-50 ug); whole entry named; also called recombinant human Siglec-15 protein
T6 sequence: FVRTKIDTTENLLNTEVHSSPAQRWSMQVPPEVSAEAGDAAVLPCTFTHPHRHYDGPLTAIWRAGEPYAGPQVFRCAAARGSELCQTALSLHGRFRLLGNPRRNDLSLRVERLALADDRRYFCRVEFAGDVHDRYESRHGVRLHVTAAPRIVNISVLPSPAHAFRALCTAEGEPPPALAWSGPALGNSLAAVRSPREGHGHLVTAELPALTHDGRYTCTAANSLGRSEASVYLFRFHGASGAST

[10] = biological target: T5, truncated human Siglec-15 comprising …; assay: flow cytometry on HEK 293T cells expressing only D2; compared to antibody clone A2A5C7E8
[11] = biological target: T4, human Siglec-15, full length, expressed …; assay: flow cytometry, HEK293T cells expressing human Siglec-15, anti-human IgG-PE, MFI
[12] = biological target: T7, recombinant cynomolgus Siglec-15-his protein (Bonopusbio, CW70-50 ug) (cynomolgus monkey, UniProt Q6ZMC9 20-259 (human entry)); assay: ELISA, plate coated with recombinant cynomolgus Siglec-15-his, antibody titrated up to about 200 nM, OD 450 nm
T7 construct: whole entry named; also called cynomolgous Siglec-15
T7 chain: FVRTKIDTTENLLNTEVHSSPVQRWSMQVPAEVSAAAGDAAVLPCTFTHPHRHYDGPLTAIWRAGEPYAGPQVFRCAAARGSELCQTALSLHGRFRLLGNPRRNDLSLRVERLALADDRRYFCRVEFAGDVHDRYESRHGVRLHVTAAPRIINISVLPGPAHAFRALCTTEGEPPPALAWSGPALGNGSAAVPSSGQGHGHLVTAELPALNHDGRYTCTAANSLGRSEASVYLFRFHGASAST

[13] = biological target: T6, recombinant human Siglec-15-his protein …; assay: ELISA, plate coated with 100 ng per well recombinant human Siglec-15 (supplier not named in Example 3), HRP anti-mouse IgG, OD450
[14] = biological target: T4, human Siglec-15, full length, expressed …; assay: flow cytometry, THP-1 cells overexpressing human Siglec-15, ADC titrated, anti-human IgG-PE, gMFI; remark: listed apart in the source
[15] = biological target: T4, human Siglec-15, full length, expressed …; assay: as above; remark: listed apart in the source

T1 sequence (P07766 23-207): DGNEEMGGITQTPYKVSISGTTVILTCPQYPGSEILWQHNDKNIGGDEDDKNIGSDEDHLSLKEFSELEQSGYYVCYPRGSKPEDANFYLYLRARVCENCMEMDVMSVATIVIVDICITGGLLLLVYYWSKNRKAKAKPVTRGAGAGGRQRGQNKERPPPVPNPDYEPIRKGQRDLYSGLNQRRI

B1: BsAb-1 (bispecific antibody, human IgG1, kappa, lambda, L234A L235A)
light 1: not shown
heavy 1: QVQLQQSGPELVKPGASVKISCKASGYAFSSSWMNWVKQRPGKGLEWIGRIYPGHGETNYNGKFKDKATVTADKSSSTTYMQLSSLTSEDSAVYFCARVDNSDPYYFDYWGQGTTLTVSSASTKGPSVFPLAPSSKSTSGGTAALGCLVKDYFPEPVTVSWNSGALTSGVHTFPAVLQSSGLYSLSSVVTVPSSSLGTQTYICNVNHKPSNTKVDKKVEPKSCDKTHTCPPCPAPEAAGGPSVFLFPPKPKDTLMISRTPEVTCVVVDVSHEDPEVKFNWYVDGVEVHNAKTKPREEQYNSTYRVVSVLTVLHQDWLNGKEYKCKVSNKALPAPIEKTISKAKGQPREPQVCTLPPSRDELTKNQVSLSCAVKGFYPSDIAVEWESNGQPENNYKTTPPVLDSDGSFFLVSKLTVDKSRWQQGNVFSCSVMHEALHNHYTQKSLSLSPGK
heavy 2: not shown
light 2: QTVVTQEPSFSVSPGGTVTLTCRSSTGAVTTSNYANWVQQTPGQAPRGLIGGTNKRAPGVPARFSGSILGNKAALTITGAQADDEAEYFCALWYSNLWVFGGGTKLTVLASTKGPSVFPLAPSSKSTSGGTAALGCLVKDYFPEPVTVSWNSGALTSGVHTFPAVLQSSGLYSLSSVVTVPSSSLGTQTYICNVNHKPSNTKVDKKVEPKSC
notes: S15B1 arm and humanized SP34 anti-CD3 arm; also called anti-Siglec-15/CD3 bispecific antibody, Format-1: KIH & CrossmAb
EC50 (read off the curve) [1]: ~4 nM
Kd [2]: 0.0865 nM
koff [2]: 0.00025 s⁻¹
kon [2]: 2.89e+06 M⁻¹ s⁻¹
Kd [3]: 115 nM
koff [3]: 0.011 s⁻¹
kon [3]: 95800 M⁻¹ s⁻¹

B2: ZLA-1243-A01 (antibody, V domains shown)
VH: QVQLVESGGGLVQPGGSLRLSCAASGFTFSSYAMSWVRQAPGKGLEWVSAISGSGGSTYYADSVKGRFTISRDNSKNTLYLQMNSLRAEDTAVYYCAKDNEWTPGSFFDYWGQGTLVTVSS
VL: QSALTQPASVSGSPGQSITISCTGTSSDVGGYNYVSWYQQHPGKAPKLMIYDVSNRPSGVSNRFSGSKSGNTASLTISGLQAEDEADYYCSSYTSSSTRVFGGGTKVTVL
notes: Fully human, from phage display; tested as full-length human IgG1 with silenced Fc (E233P, L234V, L235A, G236 deletion, D265G, A327Q, A330S, C-terminus lysine deletion)
EC50 [4]: 0.0753 µg/mL
EC50 [5]: 0.181 µg/mL
EC50 (read off the curve) [6]: ~1 nM
binding result [7]: no binding

B3: ZLA-1243-E01-MMAE (other)
VH: QVQLVQSGGGLVQPGRSLRLSCAASGFTFDDYAMHWVRQAPGKGLEWVSGISWNSGSIGYADSVKGRFTISRDNAKNSLYLQMNSLRAEDTALYYCAKGLWPSYDLDAFDIWGQGTMVTVSS
VL: QSALTQPASVSGSPGQSITLSCTGTSSDVGAYNFVSWYQQHPGTAPKLMIYEVSNRPSGVSDRFSGSKSGNTASLTISGLQAEDEADYYCSSYTSTIPPFVFGTGTKVTVL
modifications: vc-MMAE payload linker conjugated to the antibody; residue not stated
EC50 (read off the curve) [8]: ~3 nM

B4: 5G12 (antibody, V domains shown)
VH: QVQLQQPGAELVKPGASVKMSCKASGYTFTSYWITWVIQRPGQGLEWIGDIYCGSDTMHYNEKFKNKATLTVDTSSSTAYMQLSSLTSEDSAVYYCARWWDYGSSYDYFDYWGQGTTLTVSS
VL: DIKMTQSPSSMYASLGERVTITCKASQDINSYLSWFQQKPGKSPKTLIYRANRLVDGVPSRFSGSGSGQDYSLTISSLEYEDMGIYYCLQYDEFPYTFGGGTKLEIKR
EC50 (read off the curve) [6]: ~1 nM

B5: S15B1 (antibody, V domains shown)
VH: QVQLQQSGPELVKPGASVKISCKASGYAFSSSWMNWVKQRPGKGLEWIGRIYPGHGETNYNGKFKDKATVTADKSSSTTYMQLSSLTSEDSAVYFCARVDNSDPYYFDYWGQGTTLTVSS
VL: DIVLTQSPASLAVSLGQRATISCRASKSVSTSGYSYMHWYQQKPGQPPKLLIYLASNLESGVPARFSGSGSGTDFTLNIHPVEEEDAATYYCQHGRELPFTFGSGTKLEIK
notes: Mouse hybridoma monoclonal antibody ('parental mouse S15B1'); also called clone S15B1; S15B1-VH + VL (Parental)
Kd [9]: 0.0522 nM
koff [9]: 0.000233 s⁻¹
kon [9]: 4.46e+06 M⁻¹ s⁻¹
fold increase in antibody-positive cells [10]: ~4 fold
EC50 (read off the curve) [11]: ~0.5 nM
EC50 (read off the curve) [12]: ~0.6 nM
Kd [2]: 0.0497 nM
koff [2]: 0.000154 s⁻¹
kon [2]: 3.11e+06 M⁻¹ s⁻¹
EC50 (read off the curve) [13]: ~0.2 µg/mL

B6: S15B1-Exatecan ADC (other)
VH: QVQLQQSGPELVKPGASVKISCKASGYAFSSSWMNWVKQRPGKGLEWIGRIYPGHGETNYNGKFKDKATVTADKSSSTTYMQLSSLTSEDSAVYFCARVDNSDPYYFDYWGQGTTLTVSS
VL: DIVLTQSPASLAVSLGQRATISCRASKSVSTSGYSYMHWYQQKPGQPPKLLIYLASNLESGVPARFSGSGSGTDFTLNIHPVEEEDAATYYCQHGRELPFTFGSGTKLEIK
modifications: MC-GGFG-Exatecan payload linker conjugated to the antibody; residue not stated
notes: Antibody-drug conjugate; also called S15B1-based antibody-drug conjugate with Exatecan
EC50 (read off the curve) [14]: ~6 nM

B7: S15B1-MMAE ADC (other)
VH: QVQLQQSGPELVKPGASVKISCKASGYAFSSSWMNWVKQRPGKGLEWIGRIYPGHGETNYNGKFKDKATVTADKSSSTTYMQLSSLTSEDSAVYFCARVDNSDPYYFDYWGQGTTLTVSS
VL: DIVLTQSPASLAVSLGQRATISCRASKSVSTSGYSYMHWYQQKPGQPPKLLIYLASNLESGVPARFSGSGSGTDFTLNIHPVEEEDAATYYCQHGRELPFTFGSGTKLEIK
modifications: vc-MMAE payload linker conjugated to the antibody; residue not stated
notes: Antibody-drug conjugate; also called S15B1-based antibody-drug conjugate with MMAE
EC50 (read off the curve) [15]: ~8 nM

B8: parental anti-CD3 antibody (humanized SP34 CD3 antibody) (antibody, V domains shown)
VH: EVQLVESGGGLVKPGGSLRLSCAASGFTFNTYAMNWVRQAPGKGLEWVARIRSKYNNYATYYADSVKDRFTISRDDSKNTLYLQMNSLKTEDTAVYYCVRHGNFGNSYVSWFAYWGQGTLVTVSS
VL: QTVVTQEPSFSVSPGGTVTLTCRSSTGAVTTSNYANWVQQTPGQAPRGLIGGTNKRAPGVPARFSGSILGNKAALTITGAQADDEAEYFCALWYSNLWVFGGGTKLTVL
notes: also called anti-human CD3 humanized antibody; anti-CD3 mAb
EC50 (read off the curve) [1]: ~0.2 nM
Kd [3]: 67.1 nM
koff [3]: 0.00713 s⁻¹
kon [3]: 106000 M⁻¹ s⁻¹

B9: A2A5C7E8-3 (antibody, V domains shown)
VH: EVQLVQSGAEVKKPGESLRISCKGSGYSFTTYWISWVRQMPGKGLEWMGLIDPSDSYTNYSPSFKGHVTISTDKSISTAYLQWSSLKASDTAMYYCARGGYYGSEEDYWGQGTLVTVSS
VL: EIVLTQSPGTLSLSPGERATLSCRASQSVSSSRLAWFQQKSGQAPRLLIFDASSRATGIPDRFSGSGSGTDFTLTISRLEPEDFAVYYCQQYGSSPRTFGQGTKVEFKR
EC50 (read off the curve) [6]: ~0.5 nM

Source: patent US20250361297A1 (ADAPTAM THERAPEUTICS S L, published 2025)
